Measured values from publication PMC60004 (BMC Biochemistry, 2001).

Assays:
[1] = molecular target: Bombyx mori cadherin-like receptor BtR175, native, 175 kDa (Bombyx mori (endogenous in larval …)); test: SPR
[2] = molecular target: Bombyx mori aminopeptidase N, native, 115-kDa (115-120 kDa) Cry1Aa-binding receptor (Bombyx mori (endogenous in larval …)); test: SPR

B1: Bacillus thuringiensis Cry1Aa toxin (trypsin-activated, wild type) (domain or fragment)
chain: not shown
Q: Which Kd [1] does the source give for B1 here?
A: The Kd was 2.6 nM.

Q: And the koff [1]?
A: The koff was 3.3e-05 s⁻¹.

Q: And the kon [1]?
A: The kon was 13000 ± 6.1 M⁻¹ s⁻¹.

Q: And the Kd [2]?
A: Its Kd is 75 nM.

Q: What about the koff [2] of the same binder?
A: Its koff is 0.0015 s⁻¹.

Q: What about the kon [2] of the same binder?
A: Its kon is 20000 M⁻¹ s⁻¹.
